The supplement of paper PMC9170038

Tested on: MS2 coat protein
Experiment: apparent KD of MS2 coat protein; higher = weaker reporter binding
Details: Eterna round: R107
Summary of the method: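 For every design, apparent KD is the median of normalised binding-curve fits from its clusters. The RNA switches were transcribed on-chip from Illumina sequencing clusters and titrated with SNAP-549-labelled MS2 coat protein (twofold steps, 0.7 or 1.5 nM to 3 µM; 0.8–1.5 h to 10–20 min per step). Titrations used 100 mM Tris-HCl pH 7.5, 80 mM KCl, 4 mM MgCl2, without or with constant ligand.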

[1] = input ligand: theophylline 20 uM
[2] = input ligand: theophylline 2 mM
[3] = input ligand: tryptophan 2.4 mM

| Sequence | apparent KD of MS2 coat protein (input ligand: arginine 13.2 mM) [µM] | apparent KD of MS2 coat protein [1] [µM] | apparent KD of MS2 coat protein [2] [µM] | apparent KD of MS2 coat protein (input ligand: none) [µM] | apparent KD of MS2 coat protein [3] [µM] |
| --- | --- | --- | --- | --- | --- |
| CCGCCUGCCUCACAUGAGGAUCACCCAUGUCGAGGACCGGUACGGCCGCCACUCGUCGUCGGUAAUACAGGCAUUGAAUAAUAUA [Vetire] | 0.0121 | 0.0148 | 0.0121 | – | – |
| CCGGCAUGUCGAAGGAGCGUCACAUGAGGAUCACCCAUGUACAUGAGGAUCACCCAUGUGUGACAGGUAGGUCGCGGCGGCCAGG [Exclusion Arginine B GF7] | 0.108 | 0.178 | 0.197 | 0.141 | 0.158 |
| CCGGGCCCGGGAGACCGGGCCCGGACUGAAGGAGCGGGAAUAAACCCAGGUAGGUCGCAGAGAUCCACAUGAGGAUCACCCAUGU [!0.U] | 0.133 | 0.0517 | 0.0365 | 0.0545 | 0.0368 |
| CCGGUUAGGACGGCCGCCACUGUGGCUACGGUACAUGAGGAUCACCCAUGUUUGUGGUUGAUCUACAGGACCGGGUCCUGACACG [Eronri] | 0.124 | 1.21 | 0.806 | 0.247 | 0.247 |
| CCUAUGCAGUCGGCCGCCACUGAAAACAGCCUCAAAAUAAAUAUAACAUGAGGAUCACCCAUGUACAGGACCGGGACUGUAUAGG [Ex Tryptophan B 11] | 0.081 | 0.2 | 0.18 | – | – |
| CCUAUGCAGUCGGCCGCCACUGUACAUGAGGAUCACCCAUGUUCCAAAAUAAAAGGAACUGAAAUCAGGACCGGGACUGUAUAGG [Ex Tryptophan B 1] | 0.0294 | 0.0372 | 0.039 | 0.0333 | 0.0326 |
| CCUCAAUCGUCGGCCGCCACUGGAUCAUGCGGAUACAUGAGGAUCACCCAUGUGGGUGUGGUACGCAGGACCGGGACAAGACCCG [#15 Same State - Tryptophan B] | 0.164 | 0.579 | 1.03 | – | – |
| CCUGCGUUUCUUUUCUUUCGCAGGAAUGAUACCAGUAGGGAAACCUACCCUUGGCAGCAUGGGUAACAUGAGGAUCACCCAUGUU [SSThA NP+V+V2 #5 Same Structure] | 0.0932 | 0.392 | – | – | 0.343 |
| CGAAAGCAGUGAUCCAGCUUUCGCCUGGAAGGAGCGAGCGAAAGCUCAGGUAGGUCGCCAGAAACAUGAGGAUCACCCAUGUAAU [(A)''-(M)'-(A)'-(Arg1)-(Arg2)-(M1)-(M2)_Design8] | 0.0366 | 0.082 | 0.145 | 0.0654 | 0.0755 |
| CGAUACGUAACUGAUACCAGUGUACUGACAUGAGGAUCACCCAUGUUGGGUUUUGUUGUACACCCUUGGCAGCAGAAUCGUAUCG [AstrosExyTheB#18] | 0.0521 | 0.0775 | – | – | 0.0599 |
| CGAUAUAAGACGGCCGCCACUAUUAUGUAACAAAAUAAACAUGAGGAUCACCCAUGUACAUGGGAUAGGACCGGGUCCAAUAACG [#21 Same State - Tryptophan B] | 0.0987 | 0.148 | 0.151 | – | – |
| CGAUGAUGAAGGGAUACCAGAAAUGGUAUUCCUUUAUUUCUUACAUGAGGAUCACCCAUGUUCCCUUGGCAGCUUUUUAUCAUCG [ETHB #6] | 0.0493 | 0.0826 | – | – | 0.0644 |
| CGCACAUGAGGAUCACCCAUGUGAGGGCGUCGAGGACCGGUACGGCCGCCACUCGCAGGACAUGAGGAUCACCCAUGUGCCGCCG [SSTA DOUBLE!!! :-D #4] | 0.0398 | 0.131 | 0.145 | – | – |
| CGGUAGGUAGGUCGAUAUCUACCCGUAGAAGGAGCGUAAGAAAAUACAGGUAGGUCGCUACGGAACAUGAGCAUCAGCCAUGUCC [SSArg A #12-Alt Ms2] | 0.0139 | 0.0206 | 0.0121 | 0.011 | 0.0126 |
| CGUACAUGAGGAUCACCCAUGUUACAUGAUACCAGACAUGAAAAUGUCCCUUGGCAGCAUGGCGCUGAUAGGGCGGGAAACCCGA [Zabovresky] | 0.0166 | 0.0232 | 0.0287 | 0.0192 | 0.0197 |
| CGUAUGUAGACGGCCGCCACUGGAACCUGAGGAUCACCCAGGUACAGGGUGGGUAACUCGAGAGUCAGGACCGGGUCUACAUACA [Tryp B Ex t3] | 0.0194 | 0.0651 | 0.0643 | 0.042 | 0.0386 |
| CGUGGUGGGACGGAUACCAGCCACCGCGGCAACGCAACAUGAGGAUCACCCAUGUUGGGUGGCCCUUGGCAGCUGUCCUGCGACG [#1 Same State - Theophylline B Attempt #27 (HarryS)] | 0.0115 | 0.0116 | 0.0117 | 0.0117 | 0.0101 |
| CUAAGAGUAGGAAGGAGCGACAUGAGGAUCACCCAUGUGGCUCUCAUGGCCCGGGUCUUAUGUCAGGUAGGUCGCCUACUGUUUA [Solave] | 0.0136 | 0.0219 | 0.0171 | 0.0144 | 0.0141 |
| CUACAUUUGUAGAAACCGGUCAACAAUAAUCGAGGACCGGUACGGCCGCCACUCGAUGUGAAAUACACAUGAGGAUCACCCAUGU [Tryptophan A 13] | 0.0158 | 0.0191 | 0.0199 | – | – |
